Measured values as given in paper PMC2515342.

What was measured:
[1] = target: apo-hemoglobin (hemoglobin lacking heme) (bovine) (UniProt P01966); test: SPR
[2] = target: hemoglobin (with bound heme) (bovine) (UniProt P01966); test: SPR

IsdX1 (GST removed with thrombin) (domain or fragment)
Kd [1]: 9.43 mM
Kd [2]: 0.00733 mM
